Results on two substances are retold here after patent US20150037348A1.

Assay [1] has as its target baboon IL-12 (PBMC supernatant) (baboon). In words: cell-based or functional assay.
Assay [2] concerns the target recombinant human IL-12 (rhIL-12) (human) (UniProt P29459). In words: cell-based or functional assay.
Assay [3] concerns the target recombinant rhesus IL-12 (rhesus monkey) (UniProt P48091). In words: cell-based or functional assay.
The target in assay [4] is cynomolgus IL-12 (PBMC supernatant) (cynomolgus monkey). In words: cell-based or functional assay.
The target of assay [5] is recombinant murine IL-12 (mouse) (UniProt P43431). In words: receptor binding assay, 125I-murine IL-12 on 2D6 cells.
For assay [6] the target is unchanged. In words: cell-based or functional assay.
For assay [7] the target is unchanged. In words: biomolecular interaction assay, C17.15 captured via goat anti-rat IgG, murine IL-12 in solution.

Sequence of recombinant murine IL-12 (mouse) (P43431 23-215, chain 1 of 2): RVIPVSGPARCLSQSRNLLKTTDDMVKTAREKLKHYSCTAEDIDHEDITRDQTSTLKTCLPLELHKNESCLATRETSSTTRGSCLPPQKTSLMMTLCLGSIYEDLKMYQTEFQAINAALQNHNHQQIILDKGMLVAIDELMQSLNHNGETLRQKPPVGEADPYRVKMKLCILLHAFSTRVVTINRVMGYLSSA
Sequence of recombinant murine IL-12 (mouse) (P43432 23-335, chain 2 of 2, further chain): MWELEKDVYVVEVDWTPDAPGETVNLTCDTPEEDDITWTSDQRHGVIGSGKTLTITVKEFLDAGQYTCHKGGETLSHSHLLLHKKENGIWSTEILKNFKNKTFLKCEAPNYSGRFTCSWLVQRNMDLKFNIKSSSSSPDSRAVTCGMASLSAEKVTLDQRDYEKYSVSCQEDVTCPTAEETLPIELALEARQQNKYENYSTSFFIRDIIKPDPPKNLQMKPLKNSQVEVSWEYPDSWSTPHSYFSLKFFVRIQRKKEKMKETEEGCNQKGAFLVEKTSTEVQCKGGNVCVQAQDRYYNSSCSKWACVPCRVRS
Sequence of recombinant human IL-12 (rhIL-12) (human) (P29459 23-219, chain 1 of 2): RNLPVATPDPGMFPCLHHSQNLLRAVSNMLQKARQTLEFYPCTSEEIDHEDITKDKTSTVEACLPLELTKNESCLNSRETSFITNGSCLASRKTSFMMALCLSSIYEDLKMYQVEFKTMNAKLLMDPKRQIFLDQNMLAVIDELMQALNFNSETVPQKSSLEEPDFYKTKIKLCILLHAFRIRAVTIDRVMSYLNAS
Sequence of recombinant human IL-12 (rhIL-12) (human) (P29460 23-328, chain 2 of 2, further chain): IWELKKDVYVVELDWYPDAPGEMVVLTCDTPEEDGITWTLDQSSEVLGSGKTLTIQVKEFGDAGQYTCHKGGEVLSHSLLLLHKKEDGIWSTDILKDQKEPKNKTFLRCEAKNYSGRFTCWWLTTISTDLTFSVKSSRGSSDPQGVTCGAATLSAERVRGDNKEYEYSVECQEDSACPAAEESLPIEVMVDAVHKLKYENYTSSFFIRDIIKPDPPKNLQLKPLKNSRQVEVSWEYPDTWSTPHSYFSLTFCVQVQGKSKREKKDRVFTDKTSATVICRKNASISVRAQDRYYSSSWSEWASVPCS
Sequence of recombinant rhesus IL-12 (rhesus monkey) (P48091 23-219, chain 1 of 2): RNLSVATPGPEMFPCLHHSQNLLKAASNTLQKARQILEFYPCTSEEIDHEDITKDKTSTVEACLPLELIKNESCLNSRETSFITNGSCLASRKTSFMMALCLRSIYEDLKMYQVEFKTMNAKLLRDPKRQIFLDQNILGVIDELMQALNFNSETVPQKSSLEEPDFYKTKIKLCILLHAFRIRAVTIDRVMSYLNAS
Sequence of recombinant rhesus IL-12 (rhesus monkey) (P48095 23-328, chain 2 of 2, further chain): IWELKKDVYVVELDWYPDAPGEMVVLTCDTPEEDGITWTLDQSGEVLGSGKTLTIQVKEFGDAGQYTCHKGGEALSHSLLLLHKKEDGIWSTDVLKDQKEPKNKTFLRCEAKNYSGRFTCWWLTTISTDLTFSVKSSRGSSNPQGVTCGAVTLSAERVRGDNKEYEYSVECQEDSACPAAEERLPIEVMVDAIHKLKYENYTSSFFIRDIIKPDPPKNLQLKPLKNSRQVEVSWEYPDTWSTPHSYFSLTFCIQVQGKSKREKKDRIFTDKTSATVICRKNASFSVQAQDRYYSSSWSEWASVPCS

Turning to C8.6.2 (antibody), in assay [1], the IC50 (M), bioassay, Baboon IL-12 PBMC sup was found to be 2e-10 M. Also, in assay [2], the IC50 (M), bioassay, Human IL-12 Purified was 5e-11 M. Also, the IC50 (M), bioassay, Rhesus IL-12 Purified in assay [3] came to 1e-10 M. The substance also displayed an IC50 (M), bioassay, Cyno IL-12 PBMC sup in assay [4] of 1.2e-10 M.

Regarding C17.15 (antibody), the IC50 in assay [5] came out at 0.15 nM. Moreover, in assay [6], the IC50 (M), bioassay, Mouse IL-12 Purified worked out at 3e-11 M and the PHA blast IC50 was 0.014 nM. For the same substance, in assay [7], the Kd was 0.48 nM, the koff stood at 0.000184 s⁻¹ and the kon is 380000 M⁻¹ s⁻¹.

As a reminder, the IC50 is the concentration at which inhibition is half-maximal. Broadly, the Kd is the free concentration of one partner at which half of the binding sites on the other are occupied at equilibrium, for simple one-to-one binding. Usually koff stands for a measure of how fast the partners let go of each other. As a reminder, the kon is the second-order rate constant of association.
